Here are results for 6 molecules from PMC6436931, “Activation of the Endonuclease that Defines mRNA 3′ Ends Requires Incorporation into an 8-Subunit Core Cleavage and Polyadenylation Factor Complex” (Molecular Cell, 2019).

Data set [1] has as its target Cft1;Pfs2;Yth1;Fip1;Pap1 (Saccharomyces cerevisiae;Saccharomyces …, UniProt Q06632;P42841;Q06102;P45976;P29468 1-1357;1-465;1-208;1-327;1-568, ||||). In words: EMSA; CPFpol; EMSA: 50 nM RNA, 0.25-4.0 uM protein, protein diluted in 10 mM HEPES pH 7.9, 150 mM NaCl, 0.5 mM Mg(OAc)2, plus 1x loading dye (orange G, glycerol, EDTA); 30 min on ice; native 6% acrylamide/TBE PAGE. Particulars: protein: recombinant;recombinant;recombinant;recombinant;recombinant; tags: ;3C-SII;3C-8H; untagged in CPFpol+Cft2;;SII (Pap1-SII) when alone; untagged in CPFpol and CPFcore; copies: 1;2;1;1;1; label: 5'-FAM. On the technique in general: In EMSA bound probe runs differently from free probe, usually more slowly.

Data set [2] addresses T1, Rna14;Rna15 (Saccharomyces cerevisiae;Saccharomyces …, UniProt P25298;P25299 1-677;1-296, |).
T1 sequence 1: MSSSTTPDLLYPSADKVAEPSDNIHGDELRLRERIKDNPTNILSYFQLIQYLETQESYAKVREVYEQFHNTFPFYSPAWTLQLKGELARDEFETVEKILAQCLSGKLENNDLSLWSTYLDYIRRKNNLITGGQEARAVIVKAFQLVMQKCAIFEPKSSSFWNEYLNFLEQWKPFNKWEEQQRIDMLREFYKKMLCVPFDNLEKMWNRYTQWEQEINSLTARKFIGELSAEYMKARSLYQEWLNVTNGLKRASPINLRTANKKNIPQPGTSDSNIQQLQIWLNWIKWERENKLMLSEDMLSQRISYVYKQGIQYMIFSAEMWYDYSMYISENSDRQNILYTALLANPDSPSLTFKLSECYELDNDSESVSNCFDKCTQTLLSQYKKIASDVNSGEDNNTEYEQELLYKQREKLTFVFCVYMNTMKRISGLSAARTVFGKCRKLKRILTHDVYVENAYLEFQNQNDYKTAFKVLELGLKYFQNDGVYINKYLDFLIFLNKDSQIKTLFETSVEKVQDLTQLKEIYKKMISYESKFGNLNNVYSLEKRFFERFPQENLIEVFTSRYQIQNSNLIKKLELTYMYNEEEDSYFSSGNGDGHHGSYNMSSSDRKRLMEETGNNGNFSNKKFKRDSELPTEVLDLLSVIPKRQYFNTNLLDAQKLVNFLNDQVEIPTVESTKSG
T1 sequence 2: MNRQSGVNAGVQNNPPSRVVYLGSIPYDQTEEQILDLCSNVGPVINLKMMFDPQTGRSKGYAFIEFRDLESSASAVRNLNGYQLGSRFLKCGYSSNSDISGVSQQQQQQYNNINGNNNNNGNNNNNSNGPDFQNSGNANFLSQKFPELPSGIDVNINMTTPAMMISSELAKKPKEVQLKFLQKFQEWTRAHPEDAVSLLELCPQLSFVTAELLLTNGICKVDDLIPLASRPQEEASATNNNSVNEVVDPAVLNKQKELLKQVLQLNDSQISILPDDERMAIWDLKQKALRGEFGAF
The data set can be described thus: EMSA; EMSA: 50 nM RNA, 0.25-4.0 uM protein, protein diluted in 10 mM HEPES pH 7.9, 150 mM NaCl, 0.5 mM Mg(OAc)2, plus 1x loading dye (orange G, glycerol, EDTA); 30 min on ice; native 6% acrylamide/TBE PAGE. Particulars: protein: recombinant;recombinant; tags: 6H;; chain copies: 2;2; label: 5'-FAM.

Data set [3] addresses Rna14;Rna15;Pcf11;Clp1 (Saccharomyces cerevisiae;Saccharomyces …, UniProt P25298;P25299;P39081;Q08685 1-677;1-296;1-626;1-445, |||). In words: EMSA; CF IA; EMSA: 50 nM RNA, 0.25-4.0 uM protein, protein diluted in 10 mM HEPES pH 7.9, 150 mM NaCl, 0.5 mM Mg(OAc)2, plus 1x loading dye (orange G, glycerol, EDTA); 30 min on ice; native 6% acrylamide/TBE PAGE. The following applies: protein: recombinant;recombinant;recombinant;recombinant; tags: 6H;;6H;; chain copies: 2;2;1;1; label: 5'-FAM.

For data set [4], the target named is Cft1;Pfs2;Yth1;Fip1 (Saccharomyces cerevisiae;Saccharomyces …, UniProt Q06632;P42841;Q06102;P45976 1-1357;1-465;1-208;1-327, |||). The data set can be described thus: EMSA; CPFpol (no Pap1); EMSA: 50 nM RNA, 0.25-4.0 uM protein, protein diluted in 10 mM HEPES pH 7.9, 150 mM NaCl, 0.5 mM Mg(OAc)2, plus 1x loading dye (orange G, glycerol, EDTA); 30 min on ice; native 6% acrylamide/TBE PAGE. Particulars: protein: recombinant;recombinant;recombinant;recombinant; tags: ;3C-SII;3C-8H; untagged in CPFpol+Cft2;; copies: 1;2;1;1; label: 5'-FAM.
Chain of Cft1;Pfs2;Yth1;Fip1 (Q06632 whole entry, chain 1 of 4): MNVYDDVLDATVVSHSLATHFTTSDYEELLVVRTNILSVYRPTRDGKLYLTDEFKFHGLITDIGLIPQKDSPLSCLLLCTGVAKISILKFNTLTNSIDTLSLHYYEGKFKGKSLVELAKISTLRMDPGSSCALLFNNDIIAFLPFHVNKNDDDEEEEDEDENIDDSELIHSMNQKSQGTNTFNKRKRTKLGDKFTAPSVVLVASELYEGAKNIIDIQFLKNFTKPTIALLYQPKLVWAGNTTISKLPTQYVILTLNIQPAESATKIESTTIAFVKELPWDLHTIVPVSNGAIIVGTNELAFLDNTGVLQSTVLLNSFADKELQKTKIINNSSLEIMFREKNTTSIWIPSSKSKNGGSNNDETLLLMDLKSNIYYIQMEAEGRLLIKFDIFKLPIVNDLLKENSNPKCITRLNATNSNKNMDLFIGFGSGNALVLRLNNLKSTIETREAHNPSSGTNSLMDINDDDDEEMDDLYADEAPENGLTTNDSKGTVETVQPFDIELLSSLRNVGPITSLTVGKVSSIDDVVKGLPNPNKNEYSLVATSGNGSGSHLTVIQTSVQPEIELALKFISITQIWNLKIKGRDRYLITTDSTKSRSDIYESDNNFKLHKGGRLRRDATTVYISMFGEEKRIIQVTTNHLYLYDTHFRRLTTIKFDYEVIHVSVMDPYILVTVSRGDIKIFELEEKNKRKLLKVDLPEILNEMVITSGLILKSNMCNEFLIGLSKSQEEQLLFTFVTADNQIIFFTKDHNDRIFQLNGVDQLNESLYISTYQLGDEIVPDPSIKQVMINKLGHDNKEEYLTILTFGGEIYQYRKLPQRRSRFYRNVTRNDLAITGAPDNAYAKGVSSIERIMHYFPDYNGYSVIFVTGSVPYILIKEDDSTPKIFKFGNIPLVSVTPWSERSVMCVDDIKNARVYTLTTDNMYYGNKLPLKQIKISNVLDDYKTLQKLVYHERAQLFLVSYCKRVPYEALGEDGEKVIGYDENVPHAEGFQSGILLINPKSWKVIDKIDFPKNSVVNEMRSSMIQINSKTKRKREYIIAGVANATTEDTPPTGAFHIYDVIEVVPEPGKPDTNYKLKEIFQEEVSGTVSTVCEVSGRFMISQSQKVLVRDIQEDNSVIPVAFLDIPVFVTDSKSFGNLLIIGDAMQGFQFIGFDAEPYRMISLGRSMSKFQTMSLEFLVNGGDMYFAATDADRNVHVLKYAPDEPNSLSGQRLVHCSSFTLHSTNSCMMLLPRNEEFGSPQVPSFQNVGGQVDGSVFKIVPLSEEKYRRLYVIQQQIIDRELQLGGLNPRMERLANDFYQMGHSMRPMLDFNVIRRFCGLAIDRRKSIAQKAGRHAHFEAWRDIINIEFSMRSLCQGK
Chain of Cft1;Pfs2;Yth1;Fip1 (P42841 whole entry, chain 2 of 4): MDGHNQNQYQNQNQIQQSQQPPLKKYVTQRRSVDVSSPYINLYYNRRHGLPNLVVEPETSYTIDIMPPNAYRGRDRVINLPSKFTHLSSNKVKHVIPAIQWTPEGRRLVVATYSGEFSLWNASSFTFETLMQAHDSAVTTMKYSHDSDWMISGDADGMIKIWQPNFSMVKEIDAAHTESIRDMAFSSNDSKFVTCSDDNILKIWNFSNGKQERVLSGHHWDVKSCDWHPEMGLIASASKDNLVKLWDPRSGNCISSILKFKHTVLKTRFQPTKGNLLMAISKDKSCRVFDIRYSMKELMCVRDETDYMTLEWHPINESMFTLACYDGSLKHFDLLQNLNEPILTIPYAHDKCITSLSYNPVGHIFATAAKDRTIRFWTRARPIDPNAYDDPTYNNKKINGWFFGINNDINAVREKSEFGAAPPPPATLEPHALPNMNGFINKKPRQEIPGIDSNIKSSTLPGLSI
Chain of Cft1;Pfs2;Yth1;Fip1 (Q06102 whole entry, chain 3 of 4): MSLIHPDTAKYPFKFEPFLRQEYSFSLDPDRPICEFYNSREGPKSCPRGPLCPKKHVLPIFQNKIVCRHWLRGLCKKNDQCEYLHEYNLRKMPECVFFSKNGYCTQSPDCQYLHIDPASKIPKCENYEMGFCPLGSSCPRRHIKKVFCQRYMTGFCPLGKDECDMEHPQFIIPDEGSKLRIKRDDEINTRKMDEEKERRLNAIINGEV
Chain of Cft1;Pfs2;Yth1;Fip1 (P45976 whole entry, chain 4 of 4): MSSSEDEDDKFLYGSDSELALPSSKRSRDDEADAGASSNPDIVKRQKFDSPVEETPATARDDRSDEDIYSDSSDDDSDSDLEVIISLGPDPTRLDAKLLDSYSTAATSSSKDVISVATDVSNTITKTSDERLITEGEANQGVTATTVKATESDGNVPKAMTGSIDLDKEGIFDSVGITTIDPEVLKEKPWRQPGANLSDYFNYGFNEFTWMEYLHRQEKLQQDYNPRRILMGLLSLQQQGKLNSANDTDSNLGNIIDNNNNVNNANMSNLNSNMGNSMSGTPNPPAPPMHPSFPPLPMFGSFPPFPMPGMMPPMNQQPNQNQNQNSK

Chain of Rna14;Rna15;Pcf11;Clp1 (P39081 whole entry, chain 3 of 4, one chain of several): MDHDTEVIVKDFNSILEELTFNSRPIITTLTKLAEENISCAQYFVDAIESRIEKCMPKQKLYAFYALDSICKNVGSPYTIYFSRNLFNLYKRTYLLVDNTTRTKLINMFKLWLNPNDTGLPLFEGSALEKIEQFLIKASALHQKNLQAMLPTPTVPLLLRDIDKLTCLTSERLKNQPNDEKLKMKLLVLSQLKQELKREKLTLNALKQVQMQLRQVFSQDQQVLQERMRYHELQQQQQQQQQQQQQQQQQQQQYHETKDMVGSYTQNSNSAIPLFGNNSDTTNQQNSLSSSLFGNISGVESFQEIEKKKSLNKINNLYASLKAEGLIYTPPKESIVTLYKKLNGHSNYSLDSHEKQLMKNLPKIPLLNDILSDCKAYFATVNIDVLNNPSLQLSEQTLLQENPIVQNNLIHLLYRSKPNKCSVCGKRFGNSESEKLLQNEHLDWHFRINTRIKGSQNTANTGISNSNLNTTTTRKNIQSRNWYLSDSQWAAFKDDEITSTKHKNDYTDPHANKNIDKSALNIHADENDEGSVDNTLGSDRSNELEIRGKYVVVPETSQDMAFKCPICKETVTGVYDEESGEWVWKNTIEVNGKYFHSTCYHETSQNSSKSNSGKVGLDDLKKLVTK
Chain of Rna14;Rna15;Pcf11;Clp1 (Q08685 whole entry, chain 4 of 4, one chain of several): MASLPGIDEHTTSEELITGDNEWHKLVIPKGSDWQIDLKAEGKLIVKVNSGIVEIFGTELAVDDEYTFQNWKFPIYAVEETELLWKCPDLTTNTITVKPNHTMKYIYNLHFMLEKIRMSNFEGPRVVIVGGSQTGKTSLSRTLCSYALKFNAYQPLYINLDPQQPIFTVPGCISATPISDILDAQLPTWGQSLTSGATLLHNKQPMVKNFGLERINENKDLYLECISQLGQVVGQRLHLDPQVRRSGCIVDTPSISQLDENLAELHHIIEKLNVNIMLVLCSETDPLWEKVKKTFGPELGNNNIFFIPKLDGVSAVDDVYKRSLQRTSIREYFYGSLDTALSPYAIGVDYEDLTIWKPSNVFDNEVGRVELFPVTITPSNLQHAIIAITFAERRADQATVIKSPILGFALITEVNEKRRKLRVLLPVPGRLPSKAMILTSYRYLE

In the case of CCCCCCCCCCCCCCC (ssRNA) [C15], the binding result in data set [1], in data set [2], in data set [3] and in data set [4] was “no binding” in each case.
Turning to CGUUAUUUAUAUUUCAAAUUUUUCU (ssRNA) [CYC1f EMSA probe], the binding result in data set [2] and in data set [3] was “binds” throughout.
Turning to AAGAACGUUAUUUAUAUUUCAAAUUUUUCUUUUUU (ssRNA) [CYC1d EMSA probe], the binding result in data set [1], in data set [2], in data set [3] and in data set [4] was “binds” in each case.
As to AAAAAAAAAAAAAAA (ssRNA) [A15], the binding result in data set [1] is listed as “binds”; in data set [2] it was “no binding”; in data set [3], “no binding”; in data set [4] it was “binds”.
As to GGGGGGGGGGGGGGG (ssRNA) [G15], the binding result in data set [1], in data set [2], in data set [3] and in data set [4] was “binds” in each case.
Take UUUUUUUUUUUUUUU (ssRNA) [U15]: the binding result in data set [1] is listed as “no binding”; in data set [2], “binds”; in data set [3] it was “binds”; in data set [4] it was “no binding”.
